Laboratory results taken from US20200109194A1 (BLUEFIN BIOMEDICINE, published 2020).

T1: human TMEFF1 extracellular domain recombinant protein (plasmid BBP377, S40-V330, C-terminal 8xHis) (human, UniProt Q8IYR6 40-330)
T1 construct: Secreted from CHO cells with a non-native signal peptide (not part of the mature protein); also called hTMEFF1 ECD; hTMEFF1-ECD
T1 sequence: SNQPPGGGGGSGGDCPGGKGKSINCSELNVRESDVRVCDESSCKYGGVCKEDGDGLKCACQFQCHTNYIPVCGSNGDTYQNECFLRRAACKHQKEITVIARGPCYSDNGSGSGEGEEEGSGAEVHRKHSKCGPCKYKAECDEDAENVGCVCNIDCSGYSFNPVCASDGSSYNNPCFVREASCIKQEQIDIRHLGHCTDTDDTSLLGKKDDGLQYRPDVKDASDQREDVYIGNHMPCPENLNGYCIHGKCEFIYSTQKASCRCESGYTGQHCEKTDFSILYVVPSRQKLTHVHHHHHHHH


biological target: T1, human TMEFF1 extracellular domain …; experiment: BLI (Octet Red), antibody on Protein A biosensor, recombinant hTMEFF1 ECD as analyte
Experimental: (§1) The affinity of antibodies to various recombinant TMEFF1 protein was determined on an Octet Red™ instrument. After loading reagents into a 96-well plate, the Octet Red™ with Protein A-conjugated biosensors was programmed as follows: 30 seconds for baseline #1; 120 seconds to immobilize the antibody; 30 seconds for baseline #2; 300 seconds for association of antibody to recombinant TMEFF1; and 300-600 seconds for dissociation of recombinant TMEFF1 from the antibody.
Affinity of thirteen antibodies was calculated using hTMEFF1 ECD recombinant protein by Octet™.

| Binder | Kd [nM] |
| --- | --- |
| 24F10 (antibody, V domains shown) VH: QVQLVESGGGVVQPGRSLRLSCAASGFTFSSYGMHWVRQAPGKGLEWVAVIWYDGSDKYYTDSVKGRFTISRDNSKNTLYLQMNSLRAEDTAVYYCARESMVRGIVITFFDYWGQGTLVTVSS VL: EIVMTQSPATLSVSPGERATLSCRASQSVSSNLAWYQQKPGQAPRLLIYGASTRATGIPARFSGSGSGTEFTLTISSLQSEDFAVYSCQHYNNWPPTFGGGTKVEIK | 50 |
| 43B2_56A6 (antibody, human IgG1, V domains shown) VH: EVQLLESGGGLVQPGGSLRLSCAASGFTFSSYAMSWVRQAPGKGLEWVSTISGSGDSTYYADSVKGRFTISRDNSKNTLYLQMNSLRAEDTAIYYCAKFGVRGVIITNWFDPWGQGTLVTVSS VL: not shown | 39 |
| 50B4_56B2 (antibody, human IgG1, V domains shown) VH: EVQLLESGGGLVQPGGSLRLSCAASGFTFSSYAMSWVRQAPGKGLEWVSTISGSGDSTYYADSVKGRFTISRDNSKNTLYLQMNSLRVEDTAIYYCAKFGVRGVIITNWFDPWGQGTLVTVSS VL: EIVMTQSPATLSVSPGERATLSCRASQSVSSNLAWYQQKPGQVPRLLIYGASTRATGIPARFSGSGSGTEFTLTISSLQSEDFAVYYCQQYNNWPLTFGGGTKVEIK | 52 |
| 34E1_56A4 (antibody, human IgG1, V domains shown) VH: QVQLVESGGGVVQPGRSLRLSCAASGLTFSRYAMHWVRQAPGKGLEWVAVIWYDGSNKYYADSVKGRFTISRDTSKNTLYLQMNSLRAEDTAVYYCAREGLLWFGGMDVWGQGTTVTVSS VL: DIVLTQSPLSLPVTPGEPASISCRSSQSLLHSNGYNYLHWYLQKPGQSPQLLIYLGSNRASGVPDRFSGSGSGTDFTLKISRVEAEDVGLYYCMQALQTPYTFGQGTKLEIK | 98 |
| 27G5_56A2 (antibody, V domains shown) VH: QVQLQESGPGLVKPSETLSLTCAVSDYSISSGYYWGWIRQPPGKGLEWIGSIYHSGSTYYNPSLKSRVTISVDMSKNQFSLKLSSVTAADTAVYYCARDRDSVSWNGGRDYYYYGMDVWGQGTTVTVSS VL: not shown | 69 |

biological target: T2, Macaca fascicularis TMEFF1 extracellular domain recombinant protein (plasmid BBP480, S40-V330, C-terminal … (Macaca fascicularis)); experiment: BLI (Octet Red), antibody on Protein A biosensor, recombinant cyTMEFF1 ECD as analyte
T2 construct: range 40-330; also called cyTMEFF1 ECD; monkey TMEFF1 ectodomain
Experimental: as §1
Affinity of 7 antibodies was calculated using cyTMEFF1 ECD recombinant protein by Octet™.

| Binder | Kd [nM] |
| --- | --- |
| 24F10 (antibody, V domains shown) VH: QVQLVESGGGVVQPGRSLRLSCAASGFTFSSYGMHWVRQAPGKGLEWVAVIWYDGSDKYYTDSVKGRFTISRDNSKNTLYLQMNSLRAEDTAVYYCARESMVRGIVITFFDYWGQGTLVTVSS VL: EIVMTQSPATLSVSPGERATLSCRASQSVSSNLAWYQQKPGQAPRLLIYGASTRATGIPARFSGSGSGTEFTLTISSLQSEDFAVYSCQHYNNWPPTFGGGTKVEIK | 65 |

biological target: T1, human TMEFF1 extracellular domain …; experiment: BLI (Octet Red), His-tagged TMEFF1 ECD and deletion mutants on anti-Penta-His biosensors, unpurified recombinant antibody
Experimental: TMEFF1 recombinant proteins expressing 3 different deletion mutants, AFS1 (AFollistatin Domain 1), AFS2 (AFollistatin Domain 2) or AFS1&FS2 were used to identify binding domains among different antibodes using an Octet Red instrument with Anti-Penta-His (HIS 1K) biosensors. […] 100 ngs of purified TMEFF1 ECD was run along with unpurified supernatant of transfected CHO cells with the different deletion mutants. HIS 1K biosensors were loaded by submerging the biosensors into wells containing 10 ug/ml of full length TMEFF1 or one of 3 different deletion mutants (AFS1, AFS2 or AFS1&FS2) for 60 seconds. Following the loading step, the biosensors were then dipped for 30 seconds in PBS before immersion for 30 seconds in 200 ul of unpurified recombinant antibodies for 30 seconds. The biosensors were then dipped briefly (30 seconds) in PBS to observe any dissociation. […] Differential binding to the deletion mutants allowed for determination of binding sites on TMEFF1 recombinant protein. For cases where the antibody bound all 3 recombinant proteins, the binding is outside of the deleted domains.
26 of the identified antibodies were checked for epitope domain binding by Octet™ using the hTMEFF1-ECD recombinant deletion mutants (see Table 7, below).

| Binder | binding result |
| --- | --- |
| 10C10 (antibody, human IgG1, V domains shown) VH: QVQLVESGGGVVQPGRSLRLSCATSGFTFSIYGMHWVRQAPGKGLEWVAIIWYDGNKKYYADSVKGRFTISRDNSKNTLYLQMNSLRAEDTAVYYCARDPYTSSLDYWGQGTLVTVSS VL: DIQLTQSPSFLSASVGDRVTITCRASQGISSYLAWYQQKPGKAPKLLIYAASTLQSGVPSRFSGSGSGTEFTLTISSLQPEDFATYYCQQLNSYPLTFGGGTKLEIK | binds |
| M33F (antibody, human IgG1, V domains shown) VH: QVQLQESGPGLVKPSETLSLTCAVSGYSISSGYFWGWIRQPPGKKLEWIGSIYHSGSTYYNPSLKSRVTMSVDTSKNQFSLKLSSVTAADTAVYYCAREGDCSGGICYWYFDLWGRGTLVTVSS VL: DIQMTQSPSSLSASVGDRVTITCRASQGISNYLAWYQQKPGKVPKLLIYAASTLQSGVPSRFSGSGSGTEVTLTISSLQSEDFAVYYCQQYNKWPLTFGGGTKLEIK | binds |
| 19D9 (antibody, human IgG1, V domains shown) VH: QVQLVESGGGVVQPGRSLRLSCAASGFTFSIYGMHWVRQAPGKGLEWVANIWYDGSKKYYADSVKGRFTISRDNSKNTLYLQMNSLRAEDTSVYYCARDPYTSSLDYWGQGTLVTVSS VL: DIQLTQSPSFLSASVGDRVTITCRASQGISSYLAWYQQKPGKAPKLLIYTASTLQSGVPSRFSGSGSGTEFTLTISSLQPEDFATYYCQQLNSYPLTFGGGTKLEIK | binds |
| M1H1 (antibody, human IgG1, V domains shown) VH: QVQLQESGPGLVKPSETLSLTCAVSGYSISSGYFWGWIRQPPGKKLEWIGSIYHSGSTYYNPSLKSRVTMSVDTSKNQFSLKLSSVTAADTAVYYCAREGDCSGGICYWYFDLWGRGTLVTVSS VL: DIQMTQSPSSLSASVGDRVTITCRASQGISNYLAWYQQKPGKVPKLLIYAASTLQSGVPSRFSGSGSGTDFTLTISSLQPEDFAVYYCQQYNKWPLTFGGGTKLEIK | binds |
| 18C2 (antibody, human IgG1, V domains shown) VH: QVQLVESGGGVVQPGRSLRLSCAASGFTFSIYGMHWVRQAPGMGLEWVAIIRYDGSNKYYADSVKGRFTISRDNSKNTLYLRMNSLRAEDTAVYYCARDPFTSSLDYWGQGTLVTVSS VL: DIQLTQSPSFLSASVGDRVTITCRASQGISSYLAWYQQKPGKAPKLLIYAASTLQSGVPSRFSGSGSGTEFTLTISSLQPEDFATYYCQQLNSYPLTFGGGTKLEIK | binds |
| 7F12 (antibody, human IgG1, V domains shown) VH: QVQLVESGGGVVQPGRSLRLSCAASGFTFSIYGMHWVRQAPGKGLEWVAIIWYDGSDKYYADSVKGRFTISRDNSKNTLYLQMNSLRAEDTAVYYCARDPYTTSLDYWGQGTLVTVSS VL: not shown | binds |
| 37G7 (antibody, human IgG1, V domains shown) VH: QVQLVESGGGVVQPGRSLRLSCAASGFTFTSYGMHWVRQAPGKGLEWVAVVWYEGSSKFYVDSVKGRFIISRDNSKNTLYLQMNSLRAEDTAVYYCARAYCGGDCYPFDYWGQGTLVTVSS VL: DIQMTQSPSSLSASVGDRVTITCRASQGISNYLAWYQQKPGKVPKLLIYAASTLQSGVPSRFSGSGSGTDFTLTISSLQPEDVATYYCQKYNSAPWTFGQGTKVEIK | binds |
| M17 (antibody, human IgG1, V domains shown) VH: QVQLVESGGGVVQPGRSLRLSCAASGFTFRSYGMHWVRQAPGKGLEWVALIWYDGGDQYYADSVKGRFTISRDSSKSTLYLQMNSLRAEDTAVYYCARAQCGDDCYPFDYWGQGTLVTVSS VL: DIQMTQSPSSLSASVGDRVTITCRASQGIYNYLAWYQQKPGKVPKLLIYAASTLQSGVPSRFSGSGSGTDFTLTISSLQPEDVATYYCQKYNSDPWTFGQGTKLEIK | binds |
| 35B1 (antibody, human IgG1, V domains shown) VH: QVQLVESGGGVVQPGRSLRLSCAASGFTFTTYGMHWVRQAPGKGLEWVAVVWFEGNSKFYIDSVKGRFIISRDNSKNTLFLQMNSLRAEDTAVYYCARANCGADCYPFDYWGQGTLVTVSS VL: DIQMTQSPSSLSASVGDRVTITCRASQGISNYLAWYQQKPGKVPKLLIYAASTLQSGVPSRFSGSGSGTDFSLTISSLRPEDVATYYCQKYNSAPWTFGQGTKVEIK | binds |
| 29C4 (antibody, human IgG1, V domains shown) VH: QVQLVESGGGVVQPGRSLRLSCAASGFTFSNYGMHWVRQAPGKGLEWVAVIWYDGGPKFYADSVKGRFTISRDNSKNTLYLQMNSLRAEDTAVYYCARSYCGGDCYPFDYWGQGDLVTVSS VL: DIQMTQSPSSLSASVGDRVTITCRASQGISNYLAWYQQKPGKVPKLLIYAASTLQSGVPSRFSGSGSGTDFTLTISSLQPEDVATYYCQKYYSAPWTFGQGTKVEIK | binds |
| 6C11 (antibody, human IgG1, V domains shown) VH: QVQLQQSGPGLVKPSQTLSLTCAISGDSVSSNSAAWNWIRQSPSRGLEWLGRTYYRSKWYNDYPVSVKSRITINPDTSKNQVSLQLNPVTPEDTAVYYCTREQGYSSSRYYYYYGMDVWGQGTTVTVSS VL: not shown | binds |
| 11F9 (antibody, human IgG1, V domains shown) VH: EVQLVESGGGLVKPGGSLRLSCAASGFTFSYAWMSWVRQAPGKGLEWVGRIKSKTDGGTTDYAAPVKGRFTISRDDSKNTLYLQLNSLKIEDTAVYYCTTGRIAAAGFDYWAQGTLVTVSS VL: DAVVTQESALTTSPGETVTLTCRSSTGTVTTSNYANWVQEKPDHLFTGLIAGTNNRAPGVPARFSGSLIGDKAVLTITGAQTEDEAIYFCALWYSNHWVFGGGTKLTVLG | binds |
| 3H9 (antibody, human IgG1, V domains shown) VH: EVQLVESGGGLVKPGGSLRLSCAASGFVFSYAWMNWVRQAPGKGLEWVGRIKSKTEGGTTDNAAPVKGRFTISREDSKNTLYLQLNSLKIEDTAVYYCTTGRIAAAGFDYWGQGTLVTVSS VL: DAVVTQESALTTSPGETVTLTCRSSTGTVTTSNYANWVQEKPDHLFTGLIAGTNNRAPGVPARFSGSLIGDKAALTITGAQTEDEAIYFCALWYSNHWVFGGGTKLTVLG | binds |
